Reference: article PMC4266533, “Kinetics of the early events of GPCR signalling” (Febs Letters, 2014)

Legend:
[1] = biological target: T1, FLAG-NTS1 (neurotensin receptor type 1) reconstituted into PC:PG nanodiscs, neurotensin-bound (UniProt P20789 1-424); assay: SPR; Gα amine-coupled to a CM5 chip (Biacore T100/T200); NT-bound (5 uM NT) anti-FLAG-enriched FLAG-NTS1-PC:PG nanodiscs as analyte, serially diluted from 660 nM or 400 nM; single cycle kinetics at 30-50 ul/min; empty nanodiscs as reference, double-referenced; 50 mM Tris-HCl pH 7.4, 100 mM NaCl, 5 mM MgCl2; heterogeneous ligand binding global fit; conditions: both partners purified
T1 construct: Neurotensin (NT), 13 amino acid peptide, agonist kept in excess (5 uM) with the receptor; The receptor stood in ~10 nm lipid nanodiscs with the belt protein MSP1D1 (Addgene plasmid 20061, made in E. coli BL21(DE3)); MSP1D1 is not written as a chain; Primarily one receptor per disc (50:1 MSP1D1:FLAG-NTS1); also called FLAG-NTS1-PC:PG nanodiscs; NTS1-nanodiscs
T1 sequence (P20789 whole entry): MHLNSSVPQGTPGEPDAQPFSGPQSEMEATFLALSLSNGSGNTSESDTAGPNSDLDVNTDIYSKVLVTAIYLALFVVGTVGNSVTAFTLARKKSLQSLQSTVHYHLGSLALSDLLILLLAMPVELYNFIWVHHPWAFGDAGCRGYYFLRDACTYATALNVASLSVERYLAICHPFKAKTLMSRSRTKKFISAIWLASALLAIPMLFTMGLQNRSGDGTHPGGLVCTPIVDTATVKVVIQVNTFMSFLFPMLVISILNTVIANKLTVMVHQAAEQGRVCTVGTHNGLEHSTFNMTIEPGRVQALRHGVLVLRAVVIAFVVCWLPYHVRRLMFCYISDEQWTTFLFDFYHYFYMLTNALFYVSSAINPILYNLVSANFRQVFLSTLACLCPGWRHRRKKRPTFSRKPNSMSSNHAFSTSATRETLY

[2] = biological target: T1, FLAG-NTS1 (neurotensin receptor type 1) …; assay: SPR; FLAG-NTS1-PC:PG nanodiscs (2500 RU) captured on an L1 chip, empty PC:PG nanodiscs (2000 RU) in the reference cell; His6-Gs as analyte, 62.5-1000 nM, 150 s per concentration at 50 ul/min; 1:1 Langmuir and heterogeneous ligand binding fits; conditions: both partners purified

- Kd [1]: 9 nM
- Kd [2]: 65 nM
B1: His6-Gαs (alpha subunit of the stimulatory G protein Gs) (natural protein, UniProt P63092 1-394, looked up)
chain: MGCLGNSKTEDQRNEEKAQREANKKIEKQLQKDKQVYRATHRLLLLGAGESGKSTIVKQMRILHVNGFNGEGGEEDPQAARSNSDGEKATKVQDIKNNLKEAIETIVAAMSNLVPPVELANPENQFRVDYILSVMNVPDFDFPPEFYEHAKALWEDEGVRACYERSNEYQLIDCAQYFLDKIDVIKQADYVPSDQDLLRCRVLTSGIFETKFQVDKVNFHMFDVGGQRDERRKWIQCFNDVTAIIFVVASSSYNMVIREDNQTNRLQEALNLFKSIWNNRWLRTISVILFLNKQDLLAEKVLAGKSKIEDYFPEFARYTTPEDATPEPGEDPRVTRAKYFIRDEFLRISTASGDGRHYCYPHFTCAVDTENIRRVFNDCRDIIQRMHLRQYELL
notes: Alpha subunit of Gs; construct donated by Renaud Wagner (University of Strasbourg); Also tested with GTPγS (same protein, assay a2); also called His6-Gs; His-Gαs
